Results from publication PMC10323247.

What was measured:
[1] = target: recombinant human augmin complex (GFP-augmin), all eight full-length subunits HAUS1-HAUS8 (human) (UniProt Q96CS2); test: single-molecule TIRF fluorescence intensity analysis; GFP-augmin particles diffusing on microtubules; particle intensity divided by the intensity of single mGFP-augmin particles (photobleaching experiment); settings: remark: other sources report otherwise
[2] = target: GMPCPP- and Taxol-stabilised TAMRA-labelled microtubules of porcine brain tubulin (porcine) (UniProt P02550); test: TIRF microscopy binding assay; 1 nM GFP-augmin on surface-attached TAMRA-microtubules with importin α, importin β (25-400 nM) or importin α/β (25-100 nM each), with or without 3.5 μM RanQ69L; BRB80 binding buffer; 30°C

Row | Substance | stoichiometry N [1] | median background-corrected fluorescence intensity on microtubules with 100 nM importin α/β and 3.5 µM RanQ69L [2] | median background-corrected fluorescence intensity on microtubules with 400 nM importin β and 3.5 µM RanQ69L [2] | median background-corrected fluorescence intensity on microtubules, control without importin [2]
1 | recombinant human augmin complex (GFP-augmin), all eight full-length subunits HAUS1-HAUS8, Q96CS2-1 1-278; Q9NVX0-1 1-235; Q68CZ6-1 1-603; Q9H6D7-1 1-363; O94927-1 1-633; Q7Z4H7-1 1-955; Q99871-1 1-358; Q9BT25-1 1-410 | < 10 | – | – | –
2 | recombinant human augmin complex (GFP-augmin), all eight full-length subunits HAUS1-HAUS8 (from UniProt Q96CS2-1 1-278; Q9NVX0-1 1-235; Q68CZ6-1 1-603; Q9H6D7-1 1-363; O94927-1 1-633; Q7Z4H7-1 1-955; Q99871-1 1-358; Q9BT25-1 1-410) | – | 338 | 273 | 321
